Experimental data: PMC4785402, “Structure of ThiM from Vitamin B1 biosynthetic pathway of Staphylococcus aureus – Insights into a novel pro-drug approach addressing MRSA infections” (Scientific Reports, 2016)

What was measured:
[1] = molecular target: T1, SaThiM (Staphylococcus aureus, UniProt Q6GEY3); experiment: X-ray crystal structure of soaked complex, […] Å; assay type: binding; details: Mg2+ in four of the six active sites; active site at monomer interface
T1 construct: gene thiM; homotrimer, active sites between two monomers
T1 sequence (Q6GEY3 1-263): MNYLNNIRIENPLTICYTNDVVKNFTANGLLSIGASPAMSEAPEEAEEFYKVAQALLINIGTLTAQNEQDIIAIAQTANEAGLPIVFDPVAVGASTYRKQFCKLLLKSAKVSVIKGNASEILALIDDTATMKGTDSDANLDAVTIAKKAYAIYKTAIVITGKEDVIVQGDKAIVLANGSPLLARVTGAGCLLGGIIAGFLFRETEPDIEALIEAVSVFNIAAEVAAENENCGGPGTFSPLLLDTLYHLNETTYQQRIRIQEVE

[2] = system: Cc1nccn1CCO; experiment: purified protein; details: 4 mM ATP, 10 mM MgCl2, 50 mM potassium phosphate pH 7.5, 37 °C
[3] = substrate: Cc1nn(C)c(C)c1CCO; experiment: purified protein; details: 4 mM ATP, 10 mM MgCl2, 50 mM potassium phosphate pH 7.5, 37 °C

In the case of `Cc1ncsc1CCO` [THZ, 5-(hydroxyethyl)-4-methylthiazole], the “X-ray crystal structure of soaked complex, 1.90 Å” value [1] is reported as “THZ identically occupies all six active sites of the two trimers in the asymmetric unit”.

“SaThiM (Staphylococcus aureus subsp. aureus MRSA252)” showed a Km [2] of 831 ± 169 µM and a kcat [2] of 3.63 ± 0.05 s⁻¹.

B1: SaThiM (Staphylococcus aureus subsp. aureus MRSA252) (protein)
chain: T1 sequence (Q6GEY3 1-263)
Work on B1 yielded a Km [3] of 834 ± 147 µM and a kcat [3] of 3.58 ± 0.133 s⁻¹.
